Laboratory results: patent US20220268788A1
bromoacetamide scaffold with biotin = not defined here

T1: Succinate--CoA ligase [ADP-forming] subunit beta, mitochondrial (mouse) (UniProt Q9Z2I9)
T1 sequence (looked up): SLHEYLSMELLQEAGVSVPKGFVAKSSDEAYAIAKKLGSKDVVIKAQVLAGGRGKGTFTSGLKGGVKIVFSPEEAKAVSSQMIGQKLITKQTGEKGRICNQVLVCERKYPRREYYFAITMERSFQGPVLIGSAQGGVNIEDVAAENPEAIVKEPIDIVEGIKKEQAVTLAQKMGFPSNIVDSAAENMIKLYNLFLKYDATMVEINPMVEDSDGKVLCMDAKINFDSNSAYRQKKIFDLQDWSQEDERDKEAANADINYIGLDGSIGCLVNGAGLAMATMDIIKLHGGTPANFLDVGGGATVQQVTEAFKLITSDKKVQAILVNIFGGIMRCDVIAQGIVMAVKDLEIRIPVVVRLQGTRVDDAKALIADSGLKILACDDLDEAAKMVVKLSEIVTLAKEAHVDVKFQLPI

T2: citrate synthase, mitochondrial (mouse) (UniProt Q9CZU6)
T2 sequence (looked up): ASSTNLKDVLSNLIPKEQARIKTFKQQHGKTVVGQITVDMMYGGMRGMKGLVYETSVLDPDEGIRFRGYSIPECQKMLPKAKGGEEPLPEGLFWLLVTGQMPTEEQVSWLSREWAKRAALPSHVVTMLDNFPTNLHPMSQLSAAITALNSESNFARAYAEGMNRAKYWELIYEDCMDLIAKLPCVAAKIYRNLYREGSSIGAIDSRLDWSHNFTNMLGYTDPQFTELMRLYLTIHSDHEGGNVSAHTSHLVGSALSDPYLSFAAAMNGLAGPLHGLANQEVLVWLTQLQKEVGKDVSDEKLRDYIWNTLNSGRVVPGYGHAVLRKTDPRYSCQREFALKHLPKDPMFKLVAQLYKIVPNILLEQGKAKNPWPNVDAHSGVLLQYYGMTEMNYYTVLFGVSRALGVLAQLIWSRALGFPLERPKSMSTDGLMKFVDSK

B1: subacute-1 construct (SA1), biotinylated cyclic HCDR3 construct (peptide, part only; not given: biotin scaffold, part only)
peptide: Ac-TDLAVAHPVRY-NH2
modifications: linker (positions not given here) via bromoacetamide scaffold with biotin; reading uncertain; also: biotinylated bromoacetamide scaffold cyclization, attachment sites not given here
B2: Acute-2 construct (A2), biotinylated cyclic HCDR3 construct (peptide, part only; not given: biotin scaffold, part only)
peptide: Ac-SLYGSSRHTAPISF-NH2
modifications: linker (positions not given here) via bromoacetamide scaffold with biotin; reading uncertain; also: biotinylated bromoacetamide scaffold cyclization, attachment sites not given here

Key:
Test in all cases: immunoprecipitation with HCDR3 construct, number of peptides identified by mass spectrometry
[1] = target: 78 kDa glucose-regulated protein (mouse) (UniProt P20029)
78 kDa glucose-regulated protein (mouse), sequence (P20029 20-655 limits assumed): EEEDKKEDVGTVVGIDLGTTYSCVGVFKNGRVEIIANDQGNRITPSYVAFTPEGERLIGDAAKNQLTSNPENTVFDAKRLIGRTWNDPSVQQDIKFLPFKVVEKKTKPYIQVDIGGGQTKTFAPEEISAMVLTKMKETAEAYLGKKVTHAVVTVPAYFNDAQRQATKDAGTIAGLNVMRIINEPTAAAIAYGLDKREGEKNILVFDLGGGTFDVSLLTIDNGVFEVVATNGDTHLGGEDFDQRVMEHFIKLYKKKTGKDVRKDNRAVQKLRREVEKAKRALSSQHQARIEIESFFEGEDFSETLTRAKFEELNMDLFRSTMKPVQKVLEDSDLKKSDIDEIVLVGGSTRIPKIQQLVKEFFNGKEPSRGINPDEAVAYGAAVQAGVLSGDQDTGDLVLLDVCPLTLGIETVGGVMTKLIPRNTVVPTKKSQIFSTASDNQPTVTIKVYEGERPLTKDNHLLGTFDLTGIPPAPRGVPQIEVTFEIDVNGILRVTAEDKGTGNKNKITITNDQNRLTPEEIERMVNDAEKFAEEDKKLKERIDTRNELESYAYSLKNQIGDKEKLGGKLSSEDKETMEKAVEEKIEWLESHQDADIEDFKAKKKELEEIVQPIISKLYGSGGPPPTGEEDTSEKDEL

[2] = target: Heat shock cognate 71 kDa protein (mouse) (UniProt P63017)
Heat shock cognate 71 kDa protein (mouse), sequence (P63017 2-646 limits assumed): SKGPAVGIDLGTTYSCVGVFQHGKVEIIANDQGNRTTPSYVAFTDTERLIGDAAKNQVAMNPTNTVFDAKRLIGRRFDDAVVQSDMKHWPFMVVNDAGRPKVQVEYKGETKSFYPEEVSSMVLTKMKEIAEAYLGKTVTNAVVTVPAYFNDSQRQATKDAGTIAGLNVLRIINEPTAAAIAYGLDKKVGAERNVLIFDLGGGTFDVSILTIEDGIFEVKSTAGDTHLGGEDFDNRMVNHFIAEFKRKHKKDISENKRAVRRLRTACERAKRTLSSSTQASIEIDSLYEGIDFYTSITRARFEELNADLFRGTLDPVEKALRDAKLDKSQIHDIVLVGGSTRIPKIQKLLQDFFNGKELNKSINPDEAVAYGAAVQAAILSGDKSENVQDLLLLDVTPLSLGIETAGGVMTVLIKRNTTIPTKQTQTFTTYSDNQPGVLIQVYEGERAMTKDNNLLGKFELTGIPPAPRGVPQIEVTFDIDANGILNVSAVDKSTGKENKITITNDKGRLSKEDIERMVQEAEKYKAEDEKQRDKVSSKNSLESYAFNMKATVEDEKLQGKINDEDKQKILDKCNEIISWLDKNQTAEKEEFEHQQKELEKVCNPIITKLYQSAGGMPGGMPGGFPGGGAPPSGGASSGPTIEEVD

[3] = target: T1, Succinate--CoA ligase [ADP-forming] subunit beta, mitochondrial (mouse)
[4] = target: T2, citrate synthase, mitochondrial (mouse)

Row | Binder | # Peptides [1] [peptides] | # Peptides [2] [peptides] | # Peptides [3] [peptides] | # Peptides [4] [peptides]
1 | B1 | 6 | 6 |  | 
2 | B2 |  |  | 4 | 3
